Results published in the RNAGym collection of RNA variant scans (doi:10.7554/elife.80360).

B1: CPEB3 Ribozyme (parent)
chain: GGGGGCCACAGCAGAAGCGUUCACGUCGCGGCCCCUGUCAGAUUCUGGUGAAUCUGCGAAUUCUGCUGU

Variants of: B1
Experiment: self-cleavage, relative activity (ratio to wild type); higher = more cleavage; co-transcriptional

Row | Variant | self-cleavage
1 | GGGGGCCACCGCAGAAGCGUUCACGUCGCGGCCCCUGUCAGAUUCUGGUGAAUCCGCGAAUUCUGCUGU [A10C U55C] | 0.911
2 | GGGGGCCACCGCAGAAGCGUUCACGUCGCGGCCCCUGUCAGAUUCUGGUGAAUCAGCGAAUUCUGCUGU [A10C U55A] | 0.824
3 | GGGGGCCACGGCAGAAGCGUUCACGUCGCGGCCCCUGUCAGAUUCUGGUGAUUCUGCGAAUUCUGCUGU [A10G A52U] | 0.834
4 | GGGGGCCACGGCAGAAGCGUUCACGUCGCGGCCCCUGUCAGAUUCUGGUGACUCUGCGAAUUCUGCUGU [A10G A52C] | 0.776
5 | GGGGGCCACCGCAGAAGCGUUCACGUCGCGGCCCCUGUCAGAUUCUGGUGAAUCUGCGAAUCCUGCUGU [A10C U62C] | 0.72
6 | GGGGGCCACCGCAGAAGCGUUCACGUCGCGGCCCCUGUCAGAUUCUGGUGAAUCUGCGAAUGCUGCUGU [A10C U62G] | 0.772
7 | GGGGGCCACGGCAGAAGCGUUCACGUCGCGGCCCCUGUCAGAUUCUGGUGAAUCUGCGAAUUCUGCUGU [A10G] | 0.94
8 | GGGGGCCACGGCAGAAGCGUUCACGUCGCGGCCCCUGUCAGAUUCUGGUGCAUCUGCGAAUUCUGCUGU [A10G A51C] | 0.73
9 | GGGGGCCACGGCAGAAGCGUUCACGUCGCGGCCCCUGUCAGAUUCUGGUGUAUCUGCGAAUUCUGCUGU [A10G A51U] | 0.825
10 | GGGGGCCACGGCAGAAGCGUUCACGUCGCGGCCCCUGUCAGAUUCUGGUGGAUCUGCGAAUUCUGCUGU [A10G A51G] | 0.857
11 | GGGGGCCACCGCAGAAGCGUUCACGUCGCGGCCCCUGUCAGAUUCUGGUGAAUCUGCGAAUUCGGCUGU [A10C U64G] | 0.804
12 | GGGGGCCACGGCCGAAGCGUUCACGUCGCGGCCCCUGUCAGAUUCUGGUGAAUCUGCGAAUUCUGCUGU [A10G A13C] | 0.182
13 | GGGGGCCACCGCAGAAGCGUUCACGUCGCGGCCCCUGUCAGAUUCUGGUGAACCUGCGAAUUCUGCUGU [A10C U53C] | 0.863
14 | GGGGGCCACCGCAGAAGCGUUCACGUCGCGGCCCCUGUCAGAUUCUGGUGAAACUGCGAAUUCUGCUGU [A10C U53A] | 0.976
15 | GGGGGCCACGGCAGAGGCGUUCACGUCGCGGCCCCUGUCAGAUUCUGGUGAAUCUGCGAAUUCUGCUGU [A10G A16G] | 0.894
16 | GGGGGCCACGGCAGACGCGUUCACGUCGCGGCCCCUGUCAGAUUCUGGUGAAUCUGCGAAUUCUGCUGU [A10G A16C] | 0.145
17 | GGGGGCCACGGCAGAUGCGUUCACGUCGCGGCCCCUGUCAGAUUCUGGUGAAUCUGCGAAUUCUGCUGU [A10G A16U] | 0.452
18 | GGGGGCCACGGCAGAAGCGUUCGCGUCGCGGCCCCUGUCAGAUUCUGGUGAAUCUGCGAAUUCUGCUGU [A10G A23G] | 0.832
19 | GGGGGCCACGGCAGAAGCGUUCUCGUCGCGGCCCCUGUCAGAUUCUGGUGAAUCUGCGAAUUCUGCUGU [A10G A23U] | 0.748
20 | GGGGGCCACGGCAGAAGCGUUCACGUCGCGGCCCCUGUCAGAUUCUGGUGAAUCUGCGUAUUCUGCUGU [A10G A59U] | 0.647

Row | Variant | self-cleavage
21 | GGGGGCCACGGCAGAAGCGUUCACGUCGCGGCCCCUGUCAGAUUCUGGUGAAUCUGCGCAUUCUGCUGU [A10G A59C] | 0.517
22 | GGGGGCCACGGCAGAAGCGUUCACGUCGCGGCCCCUGUCAGGUUCUGGUGAAUCUGCGAAUUCUGCUGU [A10G A42G] | 0.636
23 | GGGGGCCACGGCAGAAGCGUUCACGUCGCGGCCCCUGUCAGUUUCUGGUGAAUCUGCGAAUUCUGCUGU [A10G A42U] | 0.78
24 | GGGGGCCACGGCAGAAGCGUUGACGUCGCGGCCCCUGUCAGAUUCUGGUGAAUCUGCGAAUUCUGCUGU [A10G C22G] | 0.145
25 | GGGGGCCACGGCAGAAGCGUUUACGUCGCGGCCCCUGUCAGAUUCUGGUGAAUCUGCGAAUUCUGCUGU [A10G C22U] | 0.23
26 | GGGGGCCACGGCAGAAGCGUUCACGUCGCGGCCCCUGUCAGAUUCUGGUGAAUCUGCGAGUUCUGCUGU [A10G A60G] | 0.656
27 | GGGGGCCACCGCAGAAGCGUUCACGUCGCGGCCCCUGUCAGAUUCUGGUGAAUCUGCGAACUCUGCUGU [A10C U61C] | 0.763
28 | GGGGGCCACCGCAGAAGCGUUCACGUCGCGGCCCCUGUCAGAUUCUGGUGAAUCUGCGAAAUCUGCUGU [A10C U61A] | 0.937
29 | GGGGGCCACCGCAGAAGCGUUCACGUCGCGGCCCCUGUCAGAUUCUGGUGAAUCUGCGAAGUCUGCUGU [A10C U61G] | 0.768
30 | GGGGGCCACCGCAGAAGCGUUCACGUCGCGGCCCCUGUCAGAUUCUGGUGAAUCUGCGAAUUCUGCUGG [A10C U69G] | 1.05
31 | GGGGGCCACCGCAGAAGCGUUCACGUCGCGGCCCCUGUCAGAUUCUGGUGAAUCUGCGAAUUCUGCUGA [A10C U69A] | 1.06
32 | GGGGGCCACCGCAGAAGCGUUCACGUCGCGGCCCCUGUCAGAUUCUGGUGAAUCUGCGAAUUCUGCUGC [A10C U69C] | 1.05
33 | GGGGGCCACGGCAGCAGCGUUCACGUCGCGGCCCCUGUCAGAUUCUGGUGAAUCUGCGAAUUCUGCUGU [A10G A15C] | 0.254
34 | GGGGGCCACGGCAGGAGCGUUCACGUCGCGGCCCCUGUCAGAUUCUGGUGAAUCUGCGAAUUCUGCUGU [A10G A15G] | 0.786
35 | GGGGGCCACGGCAGUAGCGUUCACGUCGCGGCCCCUGUCAGAUUCUGGUGAAUCUGCGAAUUCUGCUGU [A10G A15U] | 0.253
36 | GGGGGCCACGGCAGAAGCGUUCACGUCGCGGCCCCUGUCCGAUUCUGGUGAAUCUGCGAAUUCUGCUGU [A10G A40C] | 0.201
37 | GGGGGCCACGGCAGAAGCGUUCACGUCGCGGCCCCUGUCGGAUUCUGGUGAAUCUGCGAAUUCUGCUGU [A10G A40G] | 0.728
38 | GGGGGCCACCGCAGAAGCGUUCACGUCGCGGCCCCUGUCAGAUUCUGGUGAAUCUGCGAAUUCUGCGGU [A10C U67G] | 1.03
39 | GGGGGCCACCGCAGAAGCGUUCACGUCGCGGCCCCUGUCAGAUUCUGGUGAAUCUGCGAAUUCUGCCGU [A10C U67C] | 1.01
